1 substance from PMC2855332 can be followed below.

The test has as its target ovine PrP (VRQ allele), PrP^Sc aggregates from brains of prion-infected tg338 mice (sheep) (UniProt P23907).

Substance “ovine PrP (VRQ allele), PrP^Sc aggregates from brains of prion-infected tg338 mice (from UniProt P23907 25-233) (natural protein)” came in with a stoichiometry N of 12 to 30 PrP monomers.
